The source of these data is the RNAGym collection of RNA variant scans (doi:10.1073/pnas.2313332121).

First the molecules themselves.
B1: TPR t1 (parent)
chain: GACCAAUCUGCCCUCAGAGCUCGAGAACAUCUUCGGAUGCAGAGGAGGCAGGCUUCGGUGGCGCGAUAGCGCCAACGUCCUCAACCUCCAAUGCAUCCCACCACAUGAUGAUGCCUGAAGAGCCUUGGUUUUUUG

The series covers variants of B1. The series is described as follows: polymerase ribozyme fitness, log enrichment relative to wild type (log ratio); higher = more active; in vitro selection for triplet polymerase activity. The gist of the method:
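Each subunit of a heterodimeric triplet polymerase ribozyme was mutagenized into a library by PCR, transcribed, and subjected to one round of in vitro selection, run in triplicate. Libraries were annealed with a biotinylated primer, the partner subunit and triplets, incubated frozen at −7 °C, and extended constructs were gel-excised, captured on streptavidin beads and recovered by RT-PCR. Input and output libraries were sequenced on Illumina, keeping genotypes with ≥10 input reads and ≥1 read per output. Fitness is log base 2 of genotype enrichment divided by wild-type enrichment, from inverse-variance-weighted replicate averages.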
For the variant C72A U96A A108G G122U U129C, the “polymerase ribozyme fitness (log ratio)” value is -3.93.

G36C G47U G110C: the “polymerase ribozyme fitness (log ratio)” value was -5.66. The figure for C8A G36U G42A is -3.09. As for C22G C56U C88U A91C, the “polymerase ribozyme fitness (log ratio)” value was -4.75. Consider C8G A29U G60A G77C, for which the “polymerase ribozyme fitness (log ratio)” value was -2.46. The figure for A18U U21A A24G U55G is -3.96. The figure for C62U U87C C88G C114A is -3.36; for U59A A74U it is -0.959. As for U7G G69U C76G A95U, the “polymerase ribozyme fitness (log ratio)” value was -1.74. In the case of C94U G117C, the “polymerase ribozyme fitness (log ratio)” value is -3.83. C3U G93A C102U: the “polymerase ribozyme fitness (log ratio)” value is -2.82.

With C20G G25C, the “polymerase ribozyme fitness (log ratio)” value is -6.42. On to U33A G48C, for which the “polymerase ribozyme fitness (log ratio)” value was -5.1. To G61U U87C C99U C115G belongs -4.63; to U14A C15U C88U U96C G120U, -1.94. The figure for A41C C82U G120A is 0.0706. As to A18U C72U C85A, the “polymerase ribozyme fitness (log ratio)” value was -3.5.

As to G63U C73A C97U, the “polymerase ribozyme fitness (log ratio)” value was -4.28.

In the case of A5G C72A C73U U81G U106G A118U A121C, the “polymerase ribozyme fitness (log ratio)” value was -5.16. To A74U U129A belongs -1.52. The figure for C13G U78C A121C is 0.61.

As to A29G C49U G61A C85U, the “polymerase ribozyme fitness (log ratio)” value was -1.74. On to G45A U59G C62G, for which the “polymerase ribozyme fitness (log ratio)” value was -3.84.

As to A37C G42C G122A, the “polymerase ribozyme fitness (log ratio)” value is -2.78. For G63A G93U, the “polymerase ribozyme fitness (log ratio)” value was -2.58. The figure for G48A C72U G77C C82G A91C G110C G127C is -6.25; for A43U U59A G60U it is -1.17; for C11A C53G it is -1.8. To C8A C13G belongs -0.0841. To U7G G35C U130G belongs -4.31; to U9G G65C, -5.24. In the case of A18U C53A, the “polymerase ribozyme fitness (log ratio)” value is -2.38. The figure for A2G C20U G36C C123U is -1.11.

Regarding G58U C115A, the “polymerase ribozyme fitness (log ratio)” value was -0.324.

For the variant G63C A105G G120C, the “polymerase ribozyme fitness (log ratio)” value is -2.96. The figure for G19C G120A is -1.56; for G69U C86U it is -0.254; for A6U G61C U78G U130C it is -3.92. To G45C C101G G122A belongs -3.08; to C13U G63U C86A U112A, -1.22.

As for U9G G17A A18U A46U C73A A84G U87A U112C G127C U134A, the “polymerase ribozyme fitness (log ratio)” value was -3.68. To C72G U112G belongs -0.196. To G10C G60U A118G belongs -1.45; to C49A C114U, -1.61. To A43G G69U C89U belongs -0.177. As to G127A, the “polymerase ribozyme fitness (log ratio)” value was -1.25. To A6U G10A belongs 0.406.

On to G10U C70U U78C C82G, for which the “polymerase ribozyme fitness (log ratio)” value is -2.45. To A50C A74U belongs -1.45; to C88U A90G C99U, -2.84.

Regarding C94G U131A, the “polymerase ribozyme fitness (log ratio)” value was -1.9. The figure for C88A C123G is 1.69; for A46C G117A it is -2.35. As for C80U C88U, the “polymerase ribozyme fitness (log ratio)” value is -0.555. To C85A G107A U112G C114U G120U belongs -7.47; to A16U A26U, -4.8.

On to C70G C123U, for which the “polymerase ribozyme fitness (log ratio)” value is -0.882. To G69C C99U belongs -3.79. To U9C C13U A37C G39U G93A belongs -5.35; to C49A C70A, -1.29; to C62U C86U G117C U132A, -4.51. To G42C C72U G113C belongs -2.98; to C12A U14G U81C G93C A119U G120C, -0.255.

Consider G63U U116A, for which the “polymerase ribozyme fitness (log ratio)” value is -3.57. To G69A G93U belongs -4.03; to U59C U130G, -0.745.

Turning to U59G C76U G110U, the “polymerase ribozyme fitness (log ratio)” value is -2.81.

With A50G U55G G110C, the “polymerase ribozyme fitness (log ratio)” value is -4.52. The figure for A2C U38A C56A G113C U129A is -4.44; for G39U G69U it is 0.0399. The figure for C34G C97U C123A is -6.44.

Regarding G39U C53U G61U C123A G135U, the “polymerase ribozyme fitness (log ratio)” value is -0.952. The figure for U55G A66U A83U is -3.53; for U9G A16C A68U U109A it is -6.08. The figure for G93A C115A U131A is -0.388.

Consider A41G A105U, for which the “polymerase ribozyme fitness (log ratio)” value was -3.3. G69A U81C: the “polymerase ribozyme fitness (log ratio)” value is -2.71. The figure for G45A G48U U54C C56G G69U U78G G93U C123G U130A is -2.55; for G42U C72G C99A A103C C123U it is -6.66.

Turning to C40A G44C C49G U54A G71A C99U U109A C115U U130G, the “polymerase ribozyme fitness (log ratio)” value was -6.71. On to A41U C88U, for which the “polymerase ribozyme fitness (log ratio)” value is -1.27. On to C4U C56A C86U, for which the “polymerase ribozyme fitness (log ratio)” value is -1.22.

On to A5U G39A C73A U78C, for which the “polymerase ribozyme fitness (log ratio)” value is -0.828. The figure for C13U G51U is -2.84; for U9G U59C C101U it is -0.449. To U7G A111C U112A C123G belongs -0.393; to G51U G93C, -4.26.

For the variant C12A C13U U54A C72U C89A, the “polymerase ribozyme fitness (log ratio)” value is -1.99. The figure for G61A C88G G110A is -1.26; for C12G A100C G113U it is -5.35. The figure for A16U G61C G117C C124G is -4.49; for C70A A111U A121U it is -5.08.

In the case of A41U C53G G77A, the “polymerase ribozyme fitness (log ratio)” value is -1.35. On to U14G A91C C97U, for which the “polymerase ribozyme fitness (log ratio)” value was -4.05.

For the variant C22U G113C, the “polymerase ribozyme fitness (log ratio)” value is -6.59.

Regarding A50G G71C G113U U126A, the “polymerase ribozyme fitness (log ratio)” value is -6. To U21A A26G C73U G77A belongs -2.54; to C11U A26U U55C G71U, -3; to U59G U78A, 0.3. The figure for A5U A84U C97U is -1.7; for C49G G63A U87A it is -2.53.

On to A18C U125G, for which the “polymerase ribozyme fitness (log ratio)” value was -3.63. The figure for A6G C8A A26G A84U C99A is -5.28; for G42U G52A C101U it is -1.81; for C4G G10U G63U G69U G120A it is 0.883. To G10C G52C G77U A121U belongs 0.617; to C20A G58C C72U C76U, -3.69. The figure for C13A G42A G69U A111C U116A U129G is -4.99. Turning to G52A G61A G127U, the “polymerase ribozyme fitness (log ratio)” value is -1.95.

U112C C124U: the “polymerase ribozyme fitness (log ratio)” value came to 1.58. With G51A U87C U131A, the “polymerase ribozyme fitness (log ratio)” value is -2.41. To G42C C49G C56U belongs -2.41; to C11U G61U, -0.841; to C28U C56G, -2.75. The figure for G39C G69A is -3.44.

In the case of U55G C72G C82U A100U G113U, the “polymerase ribozyme fitness (log ratio)” value is -5.31. To C72G A111G G122A belongs -1.48; to C8A C12G C15U A18U C70U G110U U125G, -5.75; to A41U G51A G57C C82A U96G C114U U116A, -7.09. For G57A C89U U130C, the “polymerase ribozyme fitness (log ratio)” value was -0.888. The figure for C4U C12U is 0.148; for G58U G63A C94U it is -0.678; for G17U C20A G61U U87A it is -4.07. The figure for A43C C53U G110C is -7.24; for C3A U7A A121G it is 1.21. As to C12A U96A, the “polymerase ribozyme fitness (log ratio)” value was -1.84. The figure for U9A A16G C28U U54G C89G C123G U131G is -3.93; for G61C C94U U112A it is -1.52; for C13G G39U G63U C115U it is -5.78.

On to G71A U78C, for which the “polymerase ribozyme fitness (log ratio)” value was -0.782. To G57U U96C G110U belongs -2.25. The figure for C73G A100C is -1.47; for G36A A46U A83G it is -3.05; for U87A C97U it is -0.196. To G107A U112A belongs -5.07; to C53U C56G U116A G120C U133G, -1.3; to A6G G61U, -0.271.

On to U9A G17U A74C C82A U87C, for which the “polymerase ribozyme fitness (log ratio)” value was -0.851. The figure for C13U C89G A90G G110C is -6.32. The figure for C79U G110A is -0.826; for C8G G45A G48A G57A G61U U92G U112G it is -6.23. To C4U G44U C72A belongs -0.827; to C11A G47U C56A C86A U106G, -3.84; to C102U A119U C123A U126A, -2.22. For the variant C82A G110C A121U, the “polymerase ribozyme fitness (log ratio)” value is -3.02. To G69U C89A belongs -0.471.

As for A46U G47A C49U G61C C72U C85G, the “polymerase ribozyme fitness (log ratio)” value is -2.44.

As to G17C U55G C56A G63C G77U G113A, the “polymerase ribozyme fitness (log ratio)” value was -5.71.

In the case of C12A G42A C70U U96A G135C, the “polymerase ribozyme fitness (log ratio)” value is -4.85. Regarding U9A C114U G120A C123U, the “polymerase ribozyme fitness (log ratio)” value was -2.11. In the case of C40A A43U G44C G110U C114U, the “polymerase ribozyme fitness (log ratio)” value is -5.04. The figure for U38G A111C is -0.398; for C62A U78C it is -1.1. To G47A G48A belongs -1.62. G23U C73A: the “polymerase ribozyme fitness (log ratio)” value was -6.12.

Turning to U14A C70U, the “polymerase ribozyme fitness (log ratio)” value was -1.67. On to C73U A83G, for which the “polymerase ribozyme fitness (log ratio)” value is -1.56. The figure for G47U C124G is 0.196. The figure for A27C G110A is -4.22; for C13U C72G U81C A95C A119U it is -1.87; for G93U U130A U131C it is -1.29. For G63A C82U U126G, the “polymerase ribozyme fitness (log ratio)” value was -2.36. In the case of U14C G113A A118U, the “polymerase ribozyme fitness (log ratio)” value was -4.79. With A27G A41G C86A, the “polymerase ribozyme fitness (log ratio)” value is -2.64.

G45U G71C: the “polymerase ribozyme fitness (log ratio)” value was -2.68.

For the variant C53G C62A, the “polymerase ribozyme fitness (log ratio)” value was -1.3. The figure for G45A C124U is 0.272.
